Results published in the supplement of paper PMC9732359.
± gives the uncertainty stated by the source.

Assay: protein stability index of a GFP-peptide fusion (yeast GPS) (PSI 1-4); higher = more stable; sorted into four equal gates, so the index is relative within each strain
Method in brief: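 Each library plasmid carries Cherry plus GFP with a tiled 17-residue yeast protein peptide fused downstream, and the pooled library was carried in yeast. Mid-log cultures in leucine-free medium were sorted into four equal gates by GFP/Cherry ratio. Reads from Illumina sequencing of PCR-amplified plasmids from each gate were assigned to strains by barcodes. Per peptide, the protein stability index was computed as the summed products of gate read frequency and gate number.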

Sequence | protein stability index (doa10∆) | protein stability index (pdr5∆) | protein stability index (san1∆) | protein stability index (ubr1∆)
IGSQRGRRLSMLASQAN [DSN1] | 1.75 ± 0.057 | 2.47 ± 0.068 | 1.88 ± 0.096 | 2.18 ± 0.047
PALIRPGRIDRKILFEN [RPT2] | – | 2.21 ± 0.16 | 2.12 ± 0.2 | 2.58 ± 0.17
KTDFAKIINKPNELSQI [RPC82] | 3.09 ± 0.12 | 3.13 ± 0.12 | 2.84 ± 0.091 | 3.12 ± 0.14
DISAAIVHSSDGHLQFL [DLS1] | 2.92 ± 0.056 | 2.85 ± 0.068 | 3.01 ± 0.048 | 2.8 ± 0.078
RRGYQVYREVCAACHSL [CYT1] | 2.22 ± 0.073 | 1.94 ± 0.059 | 1.47 ± 0.085 | 1.59 ± 0.039
VDVQAPTDDKTLKPTFS [YOR098C/NUP1] | 3.05 ± 0.15 | 3.23 ± 0.18 | 3.16 ± 0.19 | 3.27 ± 0.076
ISFAIYSALNSTYLPKL [RRP42] | 2.1 ± 0.054 | 2.3 ± 0.048 | 2.05 ± 0.058 | 2.34 ± 0.039
NVYVGMTDMQIQWYKSL [ISW2] | 1.96 ± 0.057 | 2.41 ± 0.059 | 1.99 ± 0.072 | 3.14 ± 0.069
VSSSLYERRFGPYFVGP [PUP3] | 2.79 ± 0.13 | 2.88 ± 0.16 | 2.62 ± 0.13 | 2.95 ± 0.095
TNKLLFKRVSQTFEAKL [NUT1] | 1.78 ± 0.048 | 1.7 ± 0.046 | 1.74 ± 0.087 | 1.83 ± 0.04
IEDRDFLVRYACEPTAE [SIR3] | 2.28 ± 0.064 | 2.83 ± 0.067 | 2.53 ± 0.074 | 3.08 ± 0.069
TDIEEGMRVGVDRSKYN [RPT1] | 3.13 ± 0.14 | 3.34 ± 0.27 | 3.07 ± 0.1 | 3.13 ± 0.15
SSFTFGSTTIEKKNDEN [YLR335W/NUP2] | 2.79 ± 0.084 | 2.49 ± 0.094 | 3.08 ± 0.063 | 2.99 ± 0.046
LQVLKRERDGIKEDIEK [SMC1] | 3.06 ± 0.23 | 2.85 ± 0.12 | 3.15 ± 0.066 | 2.75 ± 0.23
KALPIRRDDEVLVVRGS [RPL26A] | 3.06 ± 0.18 | 3.05 ± 0.12 | 3.23 ± 0.13 | 3.32 ± 0.15
NMFGDYSNEPFNTNFDD [SNF6] | 3.11 ± 0.088 | 2.78 ± 0.059 | 3.06 ± 0.069 | 2.85 ± 0.045
LKTEAANVLDPSLRKLI [BRR2] | 2.44 ± 0.052 | 2.61 ± 0.059 | 2.9 ± 0.064 | 2.68 ± 0.039
SGSTEKAFKICEAAVEI [SIR3] | 2.97 ± 0.11 | 2.71 ± 0.11 | 2.84 ± 0.15 | 3.18 ± 0.16
VPMKEENLEESFLSKHA [SSN2] | 3.43 ± 0.094 | 3.69 ± 0.14 | 2.98 ± 0.2 | 3.35 ± 0.25
QSSFAGTWSAKEAVFKS [FAS2] | 2.98 ± 0.078 | 3.23 ± 0.071 | 3.18 ± 0.054 | 2.99 ± 0.058
HFSKDDYSPESKGFVEN [RPO21] | 2.88 ± 0.17 | 2.28 ± 0.17 | – | –
FDISMADLSSSEEEEDE [SSN2] | 3.14 ± 0.079 | 3.13 ± 0.077 | 3.11 ± 0.1 | 2.45 ± 0.063
ESAPITAEDSWAVISAF [RPB2] | 3.17 ± 0.08 | 2.99 ± 0.062 | 2.91 ± 0.051 | 2.99 ± 0.06
PNFFLTLISENWWHSEF [BRR2] | 2.8 ± 0.22 | 2.27 ± 0.11 | 2.59 ± 0.092 | 2.85 ± 0.25
NAELLDYLFHLLISLNI [YLR018C/POM34] | 1.79 ± 0.044 | 1.37 ± 0.031 | 1.21 ± 0.068 | 1.28 ± 0.027
VYSFDPVGSYEREQCRA [PRE7] | 3.62 ± 0.23 | 3.47 ± 0.23 | 3.27 ± 0.13 | 3.29 ± 0.091
